Data from article PMC5463187.

Molecular target: RSV strain A2 pre-fusion F, single-chain triple mutant (SC-TM) construct (respiratory syncytial virus subgroup A strain A2)
Assay: crystal structure

Substance: RSV strain A2 pre-fusion F, single-chain triple mutant (SC-TM) construct (natural protein)
- stoichiometry N: 3
